Data published in patent US6100445.

T1: murine interleukin-1β converting enzyme (ICE) (mouse)
T1 sequence: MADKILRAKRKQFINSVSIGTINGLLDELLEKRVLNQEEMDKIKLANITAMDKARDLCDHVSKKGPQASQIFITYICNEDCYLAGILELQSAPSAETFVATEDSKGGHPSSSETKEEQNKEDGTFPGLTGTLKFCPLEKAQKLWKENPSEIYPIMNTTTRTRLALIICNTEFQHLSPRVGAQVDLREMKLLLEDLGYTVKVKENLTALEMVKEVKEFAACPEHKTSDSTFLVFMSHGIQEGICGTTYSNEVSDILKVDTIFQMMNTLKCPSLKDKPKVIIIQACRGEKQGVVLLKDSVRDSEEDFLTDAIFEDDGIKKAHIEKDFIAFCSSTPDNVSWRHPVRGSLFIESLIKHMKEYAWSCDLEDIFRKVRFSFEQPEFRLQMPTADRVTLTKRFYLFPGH


Assays:
[1] = molecular target: mouse precursor form of IL-1β (preIL-1β) (mouse) (UniProt P10749)
[2] = molecular target: T1, murine interleukin-1β converting enzyme (ICE) (mouse)

IL-1β (pg/ml) released into the medium by macrophages stimulated with LPS and ATP, ELISA [1] [pg/mL]	percent inhibition of matIL-1β release from LPS-treated ICE +/+ macrophages [2] [%]	Molecule
4430		murine interleukin-1β converting enzyme (ICE)
	78	Ac-YVAD-aldehyde [tetrapeptide aldehyde Ac-YVAD-CHO]
